Target: HLA-B15 (human)
Assay: experimental peptide-HLA binding affinity; method not described

Row | Substance | Binding affinity [µM]
1 | HPV16 E7/15-24 peptide … | 38.5
2 | HPV16 E7/15-25 peptide … | 7.3
3 | HPV16 E7/15-23 peptide … | 4.68

Source: patent publication US20190241619A1
